Earlier results, collected in PMC8805269.

Biological target: Swi6 CSD (Schizosaccharomyces pombe) (UniProt P40381)

- Kd: < 17 nM
Substance: Swi6 CSD (from UniProt P40381)
